Laboratory results reported in the supplement of paper PMC10724198.
± gives the standard deviation of the averaged measurements.

What follows are sequences tested on Saccharomyces cerevisiae (assay: protein stability index of tFT-peptide fusion (C-terminal peptide) (PSI (0-1 scale)); higher = more stable (slower turnover)). Conditions: genetic background: das1 deletion; temperature: 37 C.
Protocol: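 MPS profiling in S. cerevisiae of the tFT-X12 degron library: putative degron peptides plus stable controls, 12 aa, fused to the C-terminus of a sfGFP-mCherry timer. Cells are FACS-sorted into 8 mCherry/sfGFP bins and deep-sequenced. PSI runs from 0 (unstable) to 1 (stable). Backgrounds are wild type, das1Δ and doa10Δ at 30 °C, and wild type, das1Δ, cdc34-1 and cdc53-1 at 37 °C; 2-3 technical replicates each.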
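Further: PSI is a weighted mean of sequencing reads over stability bins, variants kept only with over 10 reads, mCherry proximal and sfGFP distal, peptide attached via GGGS linker.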

First: CRLFFVFVFFWW
Second: CSFCSGMILLLS
The protein stability index of the first is lower: 0.322 ± 0.0059 for the first, 0.583 ± 0.0064 for the second.

Going from CTAWWVKGVAVK to CVILVSFFCYSA, the protein stability index falls from 0.643 ± 0.023 to 0.322 ± 0.0071.

Compared with CVLLVFLHLCLA, CVLVLLLRLAFL is higher in protein stability index: 0.4448 ± 0.0025 for the first, 0.5995 ± 0.0041 for the second.

Compared with CWILLFGCVWVG, CWSSVGLSVCGC is higher in protein stability index: 0.397 ± 0.033 for the first, 0.7193 ± 0.0065 for the second.

Compared with CWYRAVSIQYVL, DFWMLLFGIIFA is higher in protein stability index: 0.466 ± 0.021 for the first, 0.565 ± 0.033 for the second.

First: DHSWGGLLICTC
Second: DILCGRCMIVGA
The protein stability index of the first is lower: 0.546 ± 0.022 for the first, 0.6044 ± 0.0056 for the second.

Going from DIRLWISCTLWF to DLFVFFVFHFFL, the protein stability index rises from 0.425 ± 0.014 to 0.589 ± 0.013.

First: DLRFAWLLSCFS
Second: DSSRRKRLICMN
The protein stability index of the first is lower: 0.501 ± 0.014 for the first, 0.731 ± 0.008 for the second.

First: DVWEHLHKQHNM
Second: EGVVLLVDCVAT
The protein stability index of the first is higher: 0.753 ± 0.032 for the first, 0.514 ± 0.0093 for the second.

Compared with ERRWKRKVIGLC, ERRWVLVAWRFK is lower in protein stability index: 0.734 ± 0.0071 for the first, 0.619 ± 0.032 for the second.

ESSRNILLWRTI and ETYCLPRVASGI are within error of each other in protein stability index: 0.755 ± 0.032 for the first, 0.733 ± 0.029 for the second.

Compared with EWAILSLGVMCV, EYGLLLTLLAYY is higher in protein stability index: 0.2 ± 0.0075 for the first, 0.549 ± 0.0092 for the second.

Compared with FCDFLFVFPLFS, FCLGFRFFVFFL is lower in protein stability index: 0.6583 ± 0.0028 for the first, 0.408 ± 0.013 for the second.

First: FCRLTFCFFAFL
Second: FCTSSRLLYCSA
The protein stability index of the first is higher: 0.641 ± 0.0092 for the first, 0.3192 ± 0.00046 for the second.

FCTVYFVCVWEM and FECLLFVNLLVI are within error of each other in protein stability index: 0.393 ± 0.033 for the first, 0.425 ± 0.018 for the second.

First: FFCCRLPCLFVL
Second: FFCLFCLSCWVL
The protein stability index of the first is higher: 0.4824 ± 0.0016 for the first, 0.444 ± 0.0054 for the second.

Going from FFCLVEVFVGVF to FFCVLGLSFFCL, the protein stability index rises from 0.177 ± 0.0027 to 0.58942 ± 0.00014.

First: FFLFLFFFLRGS
Second: FFRVCNALLLVC
The protein stability index of the first is higher: 0.533 ± 0.035 for the first, 0.152 ± 0.025 for the second.

Going from FFSFFLSFRLWF to FFTLSTVKLLRV, the protein stability index rises from 0.456 ± 0.012 to 0.552 ± 0.0087.

FFVFVVFFCFGL and FGLLLVLASALG are within error of each other in protein stability index: 0.444 ± 0.0091 for the first, 0.465 ± 0.018 for the second.

Going from FGLMCFIFYVLV to FHFLFLFSLVSV, the protein stability index rises from 0.3756 ± 0.0017 to 0.412 ± 0.017.

FILLHLLGTIRS and FIMHRIFMALVI are within error of each other in protein stability index: 0.502 ± 0.023 for the first, 0.4786 ± 0.0006 for the second.

First: FLFCMIFIFRCF
Second: FLFLFIFYFFCC
The protein stability index of the first is lower: 0.339 ± 0.025 for the first, 0.476 ± 0.02 for the second.

First: FLFLSPLALHVS
Second: FLIVLLVIFFGF
The protein stability index of the first is higher: 0.513 ± 0.014 for the first, 0.367 ± 0.023 for the second.

First: FLLASSRRICCS
Second: FLLCGVFFFFFV
The protein stability index of the first is higher: 0.5347 ± 0.001 for the first, 0.3092 ± 0.00041 for the second.

Going from FLLGWFLFFVCS to FLLYSILLAFLL, the protein stability index rises from 0.4361 ± 0.0024 to 0.546 ± 0.0071.

Going from FLMLFVVLWLFL to FLPFRVFNFSLV, the protein stability index rises from 0.522 ± 0.071 to 0.725 ± 0.015.

FLSFARSSCLWF and FMSAGVSWIFFV are within error of each other in protein stability index: 0.739 ± 0.014 for the first, 0.7503 ± 0.0043 for the second.

Compared with FNLWCRQLASIE, FPLFCRIHLLCS is higher in protein stability index: 0.187 ± 0.0035 for the first, 0.275 ± 0.0037 for the second.

First: FPPHFLPLVFLS
Second: FPRPLPVPLAVS
The protein stability index of the first is higher: 0.67 ± 0.0083 for the first, 0.2901 ± 0.0012 for the second.

Same assay, conditions: genetic background: doa10 deletion; temperature: 30 C

Compared with CRLFFVFVFFWW, CSFCSGMILLLS is higher in protein stability index: 0.311 ± 0.01 for the first, 0.391 ± 0.004 for the second.

First: CTAWWVKGVAVK
Second: CVILVSFFCYSA
The protein stability index of the first is higher: 0.424 ± 0.028 for the first, 0.119 ± 0.0041 for the second.

Going from CVLLVFLHLCLA to CVLVLLLRLAFL, the protein stability index rises from 0.256 ± 0.014 to 0.467 ± 0.027.

Compared with CWILLFGCVWVG, CWSSVGLSVCGC is higher in protein stability index: 0.221 ± 0.015 for the first, 0.597 ± 0.037 for the second.

Going from CWYRAVSIQYVL to DFWMLLFGIIFA, the protein stability index rises from 0.26 ± 0.03 to 0.387 ± 0.015.

Going from DHSWGGLLICTC to DILCGRCMIVGA, the protein stability index rises from 0.33 ± 0.026 to 0.393 ± 0.0059.

Going from DIRLWISCTLWF to DLFVFFVFHFFL, the protein stability index rises from 0.26 ± 0.0053 to 0.377 ± 0.015.

Going from DLRFAWLLSCFS to DSSRRKRLICMN, the protein stability index falls from 0.293 ± 0.006 to 0.18 ± 0.016.

DVWEHLHKQHNM and EGVVLLVDCVAT are within error of each other in protein stability index: 0.274 ± 0.021 for the first, 0.26 ± 0.0074 for the second.

Going from ERRWKRKVIGLC to ERRWVLVAWRFK, the protein stability index rises from 0.115 ± 0.025 to 0.416 ± 0.0077.

First: ESSRNILLWRTI
Second: ETYCLPRVASGI
The protein stability index of the first is lower: 0.247 ± 0.046 for the first, 0.666 ± 0.02 for the second.

Going from EWAILSLGVMCV to EYGLLLTLLAYY, the protein stability index rises from 0.158 ± 0.0049 to 0.2986 ± 0.0026.

Going from FCDFLFVFPLFS to FCLGFRFFVFFL, the protein stability index falls from 0.589 ± 0.011 to 0.208 ± 0.012.

Going from FCRLTFCFFAFL to FCTSSRLLYCSA, the protein stability index falls from 0.446 ± 0.017 to 0.175 ± 0.0018.

FCTVYFVCVWEM and FECLLFVNLLVI are within error of each other in protein stability index: 0.177 ± 0.03 for the first, 0.153 ± 0.014 for the second.

Compared with FFCCRLPCLFVL, FFCLFCLSCWVL is higher in protein stability index: 0.174 ± 0.0061 for the first, 0.323 ± 0.011 for the second.

First: FFCLVEVFVGVF
Second: FFCVLGLSFFCL
The protein stability index of the first is lower: 0.089 ± 0.018 for the first, 0.554 ± 0.039 for the second.

Going from FFLFLFFFLRGS to FFRVCNALLLVC, the protein stability index falls from 0.419 ± 0.03 to 0.0531 ± 0.0033.

Going from FFSFFLSFRLWF to FFTLSTVKLLRV, the protein stability index falls from 0.596 ± 0.04 to 0.385 ± 0.0046.

FFVFVVFFCFGL and FGLLLVLASALG are within error of each other in protein stability index: 0.2809 ± 0.0014 for the first, 0.284 ± 0.024 for the second.

First: FGLMCFIFYVLV
Second: FHFLFLFSLVSV
The protein stability index of the first is lower: 0.223 ± 0.016 for the first, 0.293 ± 0.0034 for the second.

Compared with FILLHLLGTIRS, FIMHRIFMALVI is lower in protein stability index: 0.337 ± 0.016 for the first, 0.29 ± 0.017 for the second.

Compared with FLFCMIFIFRCF, FLFLFIFYFFCC is higher in protein stability index: 0.203 ± 0.025 for the first, 0.315 ± 0.0036 for the second.

First: FLFLSPLALHVS
Second: FLIVLLVIFFGF
The protein stability index of the first is lower: 0.177 ± 0.0097 for the first, 0.275 ± 0.018 for the second.

Going from FLLASSRRICCS to FLLCGVFFFFFV, the protein stability index rises from 0.249 ± 0.015 to 0.344 ± 0.012.

Compared with FLLGWFLFFVCS, FLLYSILLAFLL is higher in protein stability index: 0.289 ± 0.012 for the first, 0.37 ± 0.012 for the second.

Compared with FLMLFVVLWLFL, FLPFRVFNFSLV is lower in protein stability index: 0.389 ± 0.014 for the first, 0.22 ± 0.011 for the second.

First: FLSFARSSCLWF
Second: FMSAGVSWIFFV
The protein stability index of the first is higher: 0.676 ± 0.03 for the first, 0.105 ± 0.013 for the second.

First: FNLWCRQLASIE
Second: FPLFCRIHLLCS
The protein stability index of the first is higher: 0.29904 ± 0.00019 for the first, 0.059 ± 0.02 for the second.

First: FPPHFLPLVFLS
Second: FPRPLPVPLAVS
The protein stability index of the first is lower: 0.0786 ± 0.017 for the first, 0.15456 ± 3.3e-05 for the second.
